From patent publication US20240132578A1

Columns and labels:
Experiment in all cases: cell-based or functional assay
[1] = target: HIV-1 Env of isolate MGRM-A-007 (clade A pseudovirus) (HIV-1)
[2] = target: HIV-1 Env of isolate MGRM-Chronic-B-004, clade B (HIV-1)
[3] = target: HIV-1 Env of pseudovirus MGRM-F1-010 (clade F) (HIV-1)
[4] = target: HIV-1 Env of pseudovirus MGRM-F1-014 (clade F) (HIV-1)
[5] = target: HIV-1 Env of pseudovirus MGRM-G-011 (HIV-1)
[6] = target: HIV-1 Env of pseudovirus MGRM-G-027 (HIV-1)
[7] = target: HIV-1 MGRM-AG-001 Env (pseudovirus) (HIV-1)
[8] = target: HIV-1 MGRM-AG-011 Env (pseudovirus) (HIV-1)
[9] = target: HIV-1 NL43 envelope (Env) on pseudovirus (HIV-1)
[10] = target: HIV-1 envelope glycoprotein (Env) of isolate LAVI_C3 (HIV-1)
[11] = target: HIV-1 envelope glycoprotein (Env) of isolate MGRM-C-017 (HIV-1)
[12] = target: HIV-1 envelope glycoprotein (Env) of isolate MGRM-C-019 (HIV-1)
[13] = target: envelope of aMLV pseudovirus (negative control)
[14] = target: HIV-1 92TH021 Env (pseudovirus) (HIV-1)
[15] = target: HIV-1 Env of isolate MGRM-AE-008 (pseudovirus) (HIV-1)
[16] = target: HIV-1 Env of isolate MGRM-AG-001 (pseudovirus) (HIV-1)
[17] = target: HIV-1 JR-CSF Env I424A (HIV-1 (isolate JR-CSF)) (UniProt P20871)
[18] = target: HIV-1 JR-CSF Env P313A (HIV-1 (isolate JR-CSF, clade B)) (UniProt P20871)
[19] = target: HIV-1 envelope glycoprotein (Env) of isolate 92UG031, subtype A (HIV-1)
[20] = target: HIV-1 envelope glycoprotein (Env) of isolate 92WR021, subtype A (HIV-1)
[21] = target: HIV-1 envelope glycoprotein (Env) of isolate 94UG103, subtype A (HIV-1)
[22] = target: HIV-1 envelope glycoprotein (Env) of isolate APV_17, on pseudovirus (HIV-1)
[23] = target: HIV-1 envelope glycoprotein (Env) of isolate MGRM-AE-003, subtype AE (HIV-1)
[24] = target: HIV-1 envelope glycoprotein (Env) of isolate MGRM-Chronic-B-004, on pseudovirus (HIV-1)
[25] = target: HIV-1 envelope glycoprotein (Env) of isolate MGRM-Chronic-B-011, on pseudovirus (HIV-1)
[26] = target: HIV-1 Env of isolate MGRM-A-003 (pseudovirus) (HIV-1)
[27] = target: HIV-1 Env of isolate MGRM-A-013 (subtype A) (HIV-1)
[28] = target: HIV-1 Env of isolate MGRM-AE-008 (subtype AE) (HIV-1)
[29] = target: HIV-1 Env of isolate MGRM-AG-003 (subtype AG) (HIV-1)
[30] = target: HIV-1 Env of isolate MGRM-AG-013 (subtype AG) (HIV-1)
[31] = target: HIV-1 Env of isolate MGRM-D-013 (pseudovirus) (HIV-1)
[32] = target: HIV-1 Env of isolate MGRM-F1-006 (HIV-1)
[33] = target: HIV-1 Env of isolate MGRM-F1-013 (HIV-1)
[34] = target: HIV-1 Env of pseudovirus isolate MGRM-C-012 (clade C) (HIV-1)
[35] = target: HIV-1 Env of pseudovirus isolate MGRM-C-015 (clade C) (HIV-1)
[36] = target: HIV-1 Env of pseudovirus isolate MGRM-C-020 (clade C) (HIV-1)

Sequence of 1443_C16 (PG16) (TCN-116) (antibody) (VH): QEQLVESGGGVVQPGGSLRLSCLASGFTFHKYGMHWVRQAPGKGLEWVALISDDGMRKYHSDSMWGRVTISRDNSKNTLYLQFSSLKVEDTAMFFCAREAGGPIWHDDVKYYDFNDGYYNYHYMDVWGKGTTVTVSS
Sequence of 1443_C16 (PG16) (TCN-116) (antibody) (VL): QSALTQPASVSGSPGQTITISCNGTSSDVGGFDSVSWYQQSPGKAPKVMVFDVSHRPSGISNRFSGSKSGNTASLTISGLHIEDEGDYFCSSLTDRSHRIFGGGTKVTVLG

Substance | IC50 (µg/ml), pseudovirus neutralization [1] [µg/mL] | IC50 (µg/ml), pseudovirus neutralization [2] [µg/mL] | IC50 [3] [µg/mL] | IC50 [4] [µg/mL] | IC50 (µg/ml), pseudovirus neutralization [5] [µg/mL] | IC50 (µg/ml), pseudovirus neutralization [6] [µg/mL] | IC50 (µg/ml), pseudovirus neutralization [7] [µg/mL] | IC50 (µg/ml), pseudovirus neutralization [8] [µg/mL] | neutralization IC50 [9] [µg/mL] | IC50 (µg/ml), pseudovirus neutralization [10] [µg/mL] | IC50 (µg/ml), pseudovirus neutralization [11] [µg/mL] | IC50 (µg/ml), pseudovirus neutralization [12] [µg/mL] | IC50 [13] [µg/mL] | IC50 (µg/ml), pseudovirus neutralization [14] [µg/mL] | Fold IC50 increase relative to wild-type (pseudovirus neutralization) [17] [fold] | Fold IC50 increase relative to wild-type [18] [fold] | other results
2F5 (antibody) | 16.3 | 2.41 | 14.6 | 15.1 | 1.16 | 0.28 | 0.75 | > 50 | 2.41 | > 50 | > 50 | > 50 | > 50 |  |  |  | 
2G12 (antibody) | > 50 | 8.65 |  | > 50 | > 50 | > 50 | 0.69 | > 50 | 0.75 | > 50 | > 50 | > 50 | > 50 | > 50 |  |  | 
4E10 (antibody) | 1.82 | 3.7 | 3.69 | 7.36 | 1.44 | 1.19 | 1.12 | 1.36 | 4.95 | 2.85 | 1.47 | 3.49 | > 50 | 1.17 |  |  | 
1443_C16 (PG16) (TCN-116) (antibody) | 5.91 | 0.01 | 0.01 | 0.01 | 0.04 | 0.01 | 0.03 | 0.002 | < 0.0025 | 9.55 | 1.8 | 0.002 | > 50 | 0.1 |  |  | 
1495_C14 (PGC14) (antibody) | > 50 | > 50 | > 50 | > 50 | > 50 | > 50 | > 50 | > 50 | 0.373 | 12 | > 50 | 12 | > 50 | > 50 |  |  | 
5123_A06 (PGT-125) (antibody) |  |  |  |  |  |  |  |  |  |  |  |  |  |  | 0.7 | 0.3 | Neutralization by PGT-125, IC50 [14]: 0.0066 µg/mL; Neutralization by PGT-125, IC80 [14]: 0.0292 µg/mL; Neutralization by PGT-125, IC90 [14]: 0.0701 µg/mL; Neutralization by PGT-125, IC95 [14]: 0.157 µg/mL; IC50 (µg/mL), pseudovirus neutralization [15]: > 50 µg/mL; IC50 (µg/mL), pseudovirus neutralization [16]: > 50 µg/mL; IC50, pseudovirus neutralization [19]: > 50 µg/mL; IC50, pseudovirus neutralization [20]: 0.005 µg/mL; IC50, pseudovirus neutralization [21]: 0.008 µg/mL; IC50, pseudovirus neutralization [22]: 8.06 µg/mL; IC50, pseudovirus neutralization [23]: 0.092 µg/mL; IC50, pseudovirus neutralization [24]: 0.007 µg/mL; IC50, pseudovirus neutralization [25]: 3.23 µg/mL
5136_H01 (PGT-131) (antibody) |  |  |  |  |  |  |  |  |  |  |  |  |  |  | 4.8 | 0.52 | IC50 (µg/mL), pseudovirus neutralization [26]: > 50 µg/mL; IC50, pseudovirus neutralization [27]: > 50 µg/mL; IC50, pseudovirus neutralization [28]: > 50 µg/mL; IC50, pseudovirus neutralization [29]: 2.92 µg/mL; IC50, pseudovirus neutralization [30]: 0.03 µg/mL; IC50 (µg/mL), pseudovirus neutralization [31]: 4.14 µg/mL; IC50 (µg/mL), pseudovirus neutralization [32]: > 50 µg/mL; IC50 (µg/mL), pseudovirus neutralization [33]: > 50 µg/mL; IC50, pseudovirus neutralization [34]: > 50 µg/mL; IC50, pseudovirus neutralization [35]: 1.01 µg/mL; IC50, pseudovirus neutralization [36]: > 50 µg/mL
5141_B17 (PGT-126) (antibody) |  |  |  |  |  |  |  |  |  |  |  |  |  |  | 0.4 | 0.4 | IC50 (µg/mL), pseudovirus neutralization [15]: > 50 µg/mL; IC50 (µg/mL), pseudovirus neutralization [16]: > 50 µg/mL; IC50, pseudovirus neutralization [19]: > 50 µg/mL; IC50, pseudovirus neutralization [20]: 0.006 µg/mL; IC50, pseudovirus neutralization [21]: 0.008 µg/mL; IC50, pseudovirus neutralization [22]: 0.353 µg/mL; IC50, pseudovirus neutralization [23]: > 50 µg/mL; IC50, pseudovirus neutralization [24]: 0.01 µg/mL; IC50, pseudovirus neutralization [25]: 0.108 µg/mL
5145_B14 (PGT-127) (antibody) |  |  |  |  |  |  |  |  |  |  |  |  |  |  | 2 | 1.3 | IC50 (µg/mL), pseudovirus neutralization [15]: > 50 µg/mL; IC50 (µg/mL), pseudovirus neutralization [16]: > 50 µg/mL; IC50, pseudovirus neutralization [19]: > 50 µg/mL; IC50, pseudovirus neutralization [20]: 0.011 µg/mL; IC50, pseudovirus neutralization [21]: 0.017 µg/mL; IC50, pseudovirus neutralization [22]: 10.4 µg/mL; IC50, pseudovirus neutralization [23]: > 50 µg/mL; IC50, pseudovirus neutralization [24]: 0.018 µg/mL; IC50, pseudovirus neutralization [25]: 0.297 µg/mL
5147_N06 (PGT-130) (antibody) |  |  |  |  |  |  |  |  |  |  |  |  |  |  | 3.9 | 0.3 | IC50 (µg/mL), pseudovirus neutralization [26]: > 50 µg/mL; IC50, pseudovirus neutralization [27]: > 50 µg/mL; IC50, pseudovirus neutralization [28]: > 50 µg/mL; IC50, pseudovirus neutralization [29]: 0.041 µg/mL; IC50, pseudovirus neutralization [30]: 0.01 µg/mL; IC50 (µg/mL), pseudovirus neutralization [31]: 0.429 µg/mL; IC50 (µg/mL), pseudovirus neutralization [32]: > 50 µg/mL; IC50 (µg/mL), pseudovirus neutralization [33]: > 50 µg/mL; IC50, pseudovirus neutralization [34]: > 50 µg/mL; IC50, pseudovirus neutralization [35]: 0.344 µg/mL; IC50, pseudovirus neutralization [36]: > 50 µg/mL
b12 (antibody) | > 50 | 0.26 | > 50 | > 50 | > 50 | > 50 | 11.9 | > 50 | 0.06 | 0.94 | > 50 | > 50 | > 50 |  |  |  | 
